These results are taken from patent publication US6828136B2, “Esterase enzymes, DNA encoding esterase enzymes and vectors and host cells incorporating same” (Genencor International, Inc., priority 1996, dated 2004).

Read-outs that look alike come from different tables or passages of the source.

The target in one data set is 38 kD esterase (Aspergillus awamori, UniProt Q9P979). Put plainly: API-20 enzyme test strip, substrate specificity for 38 kD esterase (Table 2). The class given is biochemical, Aspergillus niger. Conditions: API-20 strip. Here is the method:
Purified 38 kD esterase was analyzed for a variety of biochemical activities with an API-20 enzyme test strip (BioMerieux Vitek) according to the manufacturers instructions. […] “+++” indicates very strong response, “++” indicates strong response and “+” indicates activity shown towards substrate. “−” means no activity detected.

The conditions of data set [1]: from A. niger CBS120.49; cited from earlier work.
For data set [2] the following is noted: from A. niger CBS120.49 grown on oat spelt xylan; cited from earlier work.
Substrate in data set [3]: COc1cc(/C=C/C(=O)OC[C@@H]2O[C@@H](O[C@@H]3[C@@H](O)[C@H](O[C@@H]4COC(O)[C@H](O)[C@H]4O)OC[C@H]3O)[C@H](O)[C@H]2O)ccc1O
Put plainly: purified protein, by the assay type. The following applies: other: substrate of purified 38 kD esterase.

Substrate in data set [4]: COc1cc(/C=C/C(=O)OC[C@@H]2O[C@@H](O[C@H]3[C@H](O)COC(O)[C@@H]3O)[C@H](O)[C@H]2O)ccc1O
Put plainly: purified protein, by the assay type. The following applies: other: substrate of purified 38 kD esterase.

Substrate in data set [5]: COC(=O)/C=C/c1ccc(O)c(OC)c1
Put plainly: purified protein, by the assay type. Conditions: other: substrate of purified 38 kD esterase.

Substrate in data set [6]: COc1cc(/C=C/C(=O)OC[C@@H]2O[C@@H](O[C@@H]3[C@@H](O)[C@H](O[C@@H]4COC(O)[C@H](O)[C@H]4O)OC[C@H]3O[C@@H]3OC[C@@H](O)[C@H](O)[C@H]3O)[C@H](O)[C@H]2O)ccc1O
In words: purified protein, by the assay type. Conditions: other: substrate of purified 38 kD esterase.

Data set [7] in a line: pH and temperature optimum of 38 kD esterase activity on methyl ferulate. Conditions: for maximal activity: methyl ferulate. The class given is biochemical. Here is the method:
The enzyme sample was chromatographed by hydrophobic interaction chromatography (Poros® HPEM phenyl ether, Perseptive BioSystems, perfusion chromatography, […]). The column was connected to a BioCad® Perfusion Chromatography Workstation (Perseptive BioSystems) and equilibrated with 5 column volumes Tris-HCl (50 mM, pH 7.4) plus 1.2 M ammonium sulfate. The sample (205 ml) was applied to the column and separated at a flow rate of 30 ml/min with a linear gradient from 1.2 M to 200 mM ammonium sulfate over 20 column volumes. […] Four fractions eluting at 750 mM ammonium sulfate contained 83% of the starting FAE activity. Active fractions were pooled (60 ml), dialysed by ultrafiltration into start buffer for next chromatographic step (10 kDa membrane, 20L of 25 mM sodium acetate buffer pH 5.0). The sample was concentrated to 10 ml in preparation for ion exchange chromatography.
(§1) The 38 kD esterase isolated according to Example 1 was analyzed for biochemical properties. […] When the 38 kD esterase was incubated in buffer for 30 minutes without substrate at pH 5.1, the temperature optima was 55° C.

Data set [8] in a line: Isoelectric point by isoelectric focusing (IEF) gel. Format: physicochemical. Here is the method: Upon native PAGE of a desalted active fraction from HPSEC a single protein band was observed, The isolelectric point of the FAE was determined using Phast gel Dry IEF equilibrated with a solution ampholyte, (20% final concentration, containing a mix of pI 2-4, 80%, pI 3-10 20%) Glycerol (10%) for 1 hour. Separation was performed as per manufacturers recommendation (Pharmacia Biotechnology, Dry IEF instruction bulletin) and stained with coomassie R-250. The sample migrated as a single protein band with an isolelectric point of about 2.8.

Data set [9] is described as follows: Activity of purified 38 kD esterase toward natural and synthetic substrates (in words). The class given is biochemical. Conditions: purified enzyme. Here is the method: as §1

Take `O=P(O)(O)Oc1ccc2ccccc2c1` [2-naphthyl phosphate]: the Activity entry on 38 kD esterase (pH 5.4) is reported as “(+)”.

Regarding `OC[C@H]1O[C@H](Oc2ccc3ccccc3c2)[C@H](O)[C@@H](O)[C@@H]1O` [2-naphthyl-αD-glucopyranoside], the Activity entry on 38 kD esterase (pH 5.4) is “(+)”.

In the case of `CCCCCCCCCCCCCC(=O)Oc1ccc2ccccc2c1` [2-naphthyl myristate], the Activity entry on 38 kD esterase (pH 7.5) is given as “(+)”.

Turning to `OC[C@H]1O[C@H](Oc2ccc3cc(Br)ccc3c2)[C@H](O)[C@@H](O)[C@H]1O` [6-Br-2-naphthyl-αD-galactopyranoside], at 38 kD esterase (pH 5.4), the Activity result is reported as “(+++)”.

As to `OC[C@H]1O[C@@H](Oc2ccc3ccccc3c2)[C@H](O)[C@@H](O)[C@H]1O` [2-naphthyl-βD-galactopyranoside], the Activity entry on 38 kD esterase (pH 5.4) is recorded as “(++)”.

Take `OC[C@H]1O[C@@H](Oc2ccc3cc(Br)ccc3c2)[C@H](O)[C@@H](O)[C@@H]1O` [6-Br-2-naphthyl-βD-glucopyranoside]: the Activity result on 38 kD esterase (pH 5.4) was “(+++)”.

Take `CCCCCCCC(=O)Oc1ccc2ccccc2c1` [2-naphthyl caprylate]: the Activity entry at 38 kD esterase (pH 7.5) was “(++)”.

For the molecule `CCCC(=O)Oc1ccc2ccccc2c1` [2-naphthyl butyrate], the Activity result on 38 kD esterase (pH 6.5) is “(+++)”.

On to `COc1ccccc1NC(=O)c1cc2cc(Br)ccc2cc1OP(=O)(O)O` [Naphthol-AS-BI-phosphate], for which, at 38 kD esterase (pH 5.4), the Activity entry is recorded as “(++)”.

B1: FAE-III: ferulic acid esterase isolated from Aspergillus niger CBS 120.49 (Faulds et al.) (protein, UniProt O42807 22-281, looked up)
Feruloyl esterase A: ASTQGISEDLYNRLVEMATISQAAYADLCNIPSTIIKGEKIYNAQTDINGWILRDDTSKEIITVFRGTGSDTNLQLDTNYTLTPFDTLPQCNDCEVHGGYYIGWISVQDQVESLVKQQASQYPDYALTVTGHSLGASMAALTAAQLSATYDNVRLYTFGEPRSGNQAFASYMNDAFQVSSPETTQYFRVTHSNDGIPNLPPADEGYAHGGVEYWSVDPYSAQNTFVCTGDEVQCCEAQGGQGVNDAHTTYFGMTSGACTW
With B1, in data set [1], the pH optimum was 5 and the temperature optimum was 55-60 °C. In addition, the pI in data set [2] was 3.3.

B2: 38 kD esterase (Aspergillus awamori) (protein)
chain: ASTQGISEDLYSRLVEMATISQAAYADLCNIPSTIIKGEKIYNSQTDINGWILRDDSSKEIITVFRGTGSDTNLQLDTNYTLTPFDTLPQCNGCEVHGGYYIGWVSVQDQVESLVKQQVSQYPDYALTVTGHSLGASLAALTAAQLSATYDNIRLYTFGEPRSGNQAFASYMNDAFQASSPDTTQYFRVTHANDGIPNLPPVEQGYAHGGVEYWSVDPYSAQNTFVCTGDEVQCCEAQGGQGVNNAHTTYFGMTSGACTW
B2: the Km – broadly, the substrate concentration at which the rate is half of its maximum – in data set [3] came out at 19 µM; in data set [4], 78 µM; in [5] it was 2080 µM; in data set [6], 52 µM. The Vmax (in general, the rate approached at saturating substrate) in data set [3] was determined as 498 µmol/min/mg; in [4], 276 µmol/min/mg; in [5] it was 87 µmol/min/mg; in data set [6], 307 µmol/min/mg.

B3: 38 kD esterase: esterase derived from Aspergillus niger, about 38 kD on SDS-PAGE, amino acid sequence SEQ. ID NO:28 (protein)
chain: MKQFSAKHVLAVVVTAGHALAASTQGISEDLYSRLVEMATISQAAYADLCNIPSTIIKGEKIYNSQTDINGWILRDDSSKEIITVFRGTGSDTNLQLDTNYTLTPFDTLPQCNGCEVHGGYYIGWVSVQDQVESLVKQQVSQYPDYALTVTGHSLGASLAALTAAQLSATYDNIRLYTFGEPRSGNQAFASYMNDAFQASSPDTTQYFRVTHANDGIPNLPPVEQGYAHGGVEYWSVDPYSAQNTFVCTGDEVQCCEAQGGQGVNNAHTTYFGMTSGACTW
Turning to B3, the temperature optimum in data set [7] (250 μM methyl ferulate present) was determined as 65 °C. The maximal activity in [7] (pH 3) was determined as 83%; in data set [7] (pH 8) it was 25%. In data set [8], the “pI (isoelectric point)” value is “about 2.8”. For the same molecule, the “activity toward natural feruloyl and p-coumaroyl esters, cell walls of wheat bran and sugar beet pulp, wheat flour, pentosan fraction, ethyl and methyl esters of ferulic and p-coumaric acid” value in data set [9] was “active”.
